This is an account of results in publication PMC3338484.

In this data set the test system is T1, Nc1nc2c(c(=O)[nH]1)N1CN(c3ccc(C(=O)NC(CCC(=O)O)C(=O)O)cc3)CC1CN2.
T1 construct: hexa-histidine tag with TEV protease site (N, cleaved yes); made in house; host or cells: E. coli BL21 (DE3)
Put plainly: FolD enzyme assay (absorbance at 350 nm), IC50 determination. It counts as biochemical, Pseudomonas aeruginosa. Conditions: other: 1 nM PaFolD, end-point assay; other substrate saturating; mean ± SD (n = 4); pH 7.9. The protocol:
Enzyme activity was assayed by measuring the absorbance at 350 nm of the intermediate product in the reaction, N ^5,N ^10-methenyl-THF, following acidification of the reaction and consequent reconversion of the final product formyl-THF to the intermediate. Following optimization of the assay buffer and determination of the enzyme linearity, assays were carried out at room temperature in a 50 µL reaction volume containing 25 mM bicine, pH 7.9, 1 mM dithiothreitol, 0.05% CHAPS, 0.2 mg mL^−1 BSA, 1 nM recombinant FolD, […] NADP^+ and 35 µM N ^5,N ^10-methylene-THF. Michaelis constants for the two substrates (NADP^+ and N ^5,N ^10-methylene-THF) were determined in an end-point assay, using these buffer and enzyme conditions.
The HTS was performed with a compound collection of 79,029 diverse structures based around 4000 chemical scaffolds. All compounds were dissolved in 100% DMSO to a concentration of 3 mM. Single point inhibition assays were carried out at room temperature in clear, flat bottom, polystyrene, 384-well plates (Matrix). Each assay was performed in a 50 µL reaction volume as described above. […] The FolD assay was run at room temperature for 20 min and the signal was allowed to develop for 10 min before the absorbance of each well was read at 350 nm using an EnVision multilabel plate reader (PerkinElmer Life Sciences). […]

Consider PaFolD (Pseudomonas aeruginosa PAO1), for which the Km (as a rule, the substrate concentration at which the rate is half of its maximum) stood at 26 ± 4 µM.
